Experiments:
Experiment in all cases: co-IP; FFLISA as a1; total Lck signal of all sucrose gradient fractions normalised to CD4 signal, given relative to WT
[1] = molecular target: mouse CD4 Clasp mutant (C444S, C446S) (mouse) (UniProt P06332)
[2] = molecular target: mouse CD4 LL mutant (L437A + L438A) (mouse) (UniProt P06332)
[3] = molecular target: mouse CD4 HC mutant (total helix + clasp: aa430–442 replaced, C444S, C446S) (mouse) (UniProt P06332)
[4] = molecular target: mouse CD4 H mutant (total ICD helix mutation, aa430–442 to …) (mouse) (UniProt P06332)
[5] = molecular target: mouse CD4 TP mutant (TMD + Palm: G403V, G406L, C418S, C421S) (mouse) (UniProt P06332)

Lck (Src kinase) (from UniProt P06240 1-509) (enzyme)
total CD4–Lck abundance, percent of WT [1]: 31 % of WT | total CD4–Lck abundance, percent of WT [2]: 49 % of WT | CD4−Lck association, percent of WT [3]: 14 % of WT | CD4−Lck association, percent of WT [4]: 25 % of WT | total CD4–Lck abundance, percent of WT [5]: 123 % of WT
